No end group written: not given here.
Assays:
VEGF-A165 [1] = target: T1, VEGF-A165 (Homo sapiens, UniProt P15692); assay: Surface plasmon resonance, laminin against GF; settings: SPR; laminin protein immobilized on chip, GF flowed; Langmuir binding kinetics
T1 construct: All growth factors (GFs) and chemokines were purchased in their mature forms; purchased PeproTech; host or cells: Escherichia coli
T1 sequence (P15692 27-191 isoform P15692-4 limits assumed): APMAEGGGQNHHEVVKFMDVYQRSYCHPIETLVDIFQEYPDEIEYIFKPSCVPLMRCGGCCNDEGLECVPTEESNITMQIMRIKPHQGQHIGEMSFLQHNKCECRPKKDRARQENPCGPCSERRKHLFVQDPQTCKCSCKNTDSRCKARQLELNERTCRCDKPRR
Description: (§1) SPR analysis was performed as described previously^2. In brief, measurements were made with a Biacore 3000 SPR system (GE Healthcare). Laminin-521 or laminin α32928-3150 was immobilized via amine coupling on a C1 chip (GE Healthcare) for ˜2000 or ˜1000 resonance units (RU), respectively, according to the manufacturer's instructions. VEGF-A165, PDGF-BB, or PlGF-2 was flowed at increasing concentrations in the running buffer at 20 μL/min. The sensor chip was regenerated with 50 mM NaOH for every cycle. Specific bindings of GFs to laminin were calculated by comparison to a non-functionalized channel used as a reference. Experimental results were fitted with Langmuir binding kinetics using BIAevaluation software (GE Healthcare).

PDGF-BB [2] = target: T2, PDGF-BB (Homo sapiens, UniProt P01127); assay: Surface plasmon resonance, laminin against GF; settings: SPR; laminin protein immobilized on chip, GF flowed; Langmuir binding kinetics
T2 construct: All growth factors (GFs) and chemokines were purchased in their mature forms; purchased PeproTech; host or cells: Escherichia coli
T2 sequence (P01127 82-190 limits assumed): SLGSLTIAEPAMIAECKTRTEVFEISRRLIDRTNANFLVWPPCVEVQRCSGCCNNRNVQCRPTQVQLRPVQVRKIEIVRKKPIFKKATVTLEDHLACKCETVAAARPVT
Description: as §1

PlGF-2 [3] = target: T3, PlGF-2 (Homo sapiens, UniProt P49763); assay: Surface plasmon resonance, laminin against GF; parameters: All GFs and chemokines were purchased in their mature forms; purchased PeproTech; host or cells: Escherichia coli; settings: SPR; laminin protein immobilized on chip, GF flowed; Langmuir binding kinetics
T3 sequence (P49763 19-170 isoform P49763-3 limits assumed): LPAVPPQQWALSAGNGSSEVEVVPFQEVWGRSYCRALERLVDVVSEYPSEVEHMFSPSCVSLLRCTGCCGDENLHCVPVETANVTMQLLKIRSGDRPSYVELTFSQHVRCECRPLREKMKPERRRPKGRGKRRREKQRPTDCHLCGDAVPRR
Description: as §1

CXCL-12α = target: T4, CXCL-12α (Homo sapiens, UniProt P48061); assay: Laminin binding to recombinant GFs (ELISA); settings: ELISA A450 nm; signals greater than 0.1 = binding
T4 construct: All GFs and chemokines were purchased in their mature forms; purchased PeproTech; host or cells: Escherichia coli
T4 sequence (P48061 22-89 limits assumed): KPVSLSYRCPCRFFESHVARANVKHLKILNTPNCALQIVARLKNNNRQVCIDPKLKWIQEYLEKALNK
Description: (§2) ELISA tests were performed as previously reported. In brief, ELISA plates (med-binding, Greiner Bio-One) were coated with 50 nM GFs at 37° C. for more than 2 hrs. After blocking with 2% BSA solution containing PBS and 0.05% Tween 20 (PBS-T), 10 nM recombinant human laminin isoforms (−111, −211, −332, −411, −421, −511, and −521) (>95% purity tested by SDS-PAGE, BioLamina) were added. Bound laminin was detected with rabbit anti-human laminin γ1 chain antibody (1:1000 dilution, Assay biotech) or rabbit anti-human laminin α3 chain antibody (1:1000 dilution, Assay biotech). After incubation with biotinylated anti-rabbit antibody for 60 min at room temperature (RT), HRP conjugated streptavidin (Jackson ImmunoResearch) was added. After 60 min of incubation at RT, 50 μL TMB substrate (Sigma-Aldrich) was added. The reactions were stopped by adding 25 μL of 2N H2SO4. Subsequently, the absorbance at 450 nm was measured with a reference of 570 nm.

CXCL-11 = target: T5, CXCL-11 (Homo sapiens, UniProt O14625); assay: Laminin binding to recombinant GFs (ELISA); settings: ELISA A450 nm; signals greater than 0.1 = binding
T5 construct: All growth factors (GFs) and chemokines were purchased in their mature forms; purchased PeproTech; host or cells: Escherichia coli
T5 sequence (O14625 22-94): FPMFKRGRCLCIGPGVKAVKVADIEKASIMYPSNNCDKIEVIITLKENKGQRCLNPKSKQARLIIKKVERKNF
Description: as §2

VEGF-A145 = target: T6, VEGF-A145 (Homo sapiens, UniProt P15692); assay: vWF binding to recombinant VEGF-A isoforms (ELISA); settings: plate coated with 50 nM vWF domains, 1 μg/mL VEGF-A, vs BSA
T6 construct: All GFs and chemokines were purchased in their mature forms; purchased R & D Systems
T6 sequence (P15692 27-171 isoform P15692-6 limits assumed): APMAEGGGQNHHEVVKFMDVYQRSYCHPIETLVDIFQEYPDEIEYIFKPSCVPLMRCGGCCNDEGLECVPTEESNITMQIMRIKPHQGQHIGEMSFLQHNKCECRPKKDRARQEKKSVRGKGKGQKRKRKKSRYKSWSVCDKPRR
Description: (§3) ELISA was performed as previously reported1. In brief, ELISA plates (med binding: Greiner Bio-One) were coated with 50 nM BSA (GE Healthcare), pro-peptide containing recombinant vWF (Sino Biological), plasma-derived vWF (EMD Millipore), recombinant human vWF A1 domain (U-Protein Express), recombinant human vWF A2 domain (R & D systems), recombinant human vWF A3 domain (U-Protein Express), vWF A1 HBD peptide or scrambled/mutated HBD peptide (all peptides were synthesized by Genscript). After blocking with 2% BSA solution containing PBS-T, 1 μg/mL of recombinant human VEGF-A121 (PeproTech), recombinant human VEGF-A145 (R & D Systems), or recombinant human VEGF-A165 (PeproTech) was added. Bound VEGF-A was detected with 1 μg/mL of mouse anti-human VEGF-A antibody (clone: 26503, R & D systems). After 60 min of incubation, horseradish peroxidase (HRP) conjugated goat anti-mouse antibody (1:2000 dilution, Dako) was added and incubated for another 60 min. Color development and the absorbance measurement were done as described above.

VEGF-A165 [4] = target: T1, VEGF-A165; assay: vWF binding to recombinant VEGF-A isoforms (ELISA); settings: plate coated with 50 nM vWF domains, 1 μg/mL VEGF-A, vs BSA
Description: as §3

CXCL-12γ = target: T7, CXCL-12γ (Homo sapiens, UniProt P48061); assay: Recombinant GF binding to the vWF recombinant protein and A1 HBD peptide (ELISA); settings: plate coated with vWF protein, A1 domain or HBD peptide, 1 μg/mL GF
T7 construct: All GFs and chemokines were purchased in their mature forms; purchased R & D Systems; host or cells: Escherichia coli
T7 sequence (P48061 22-119 isoform P48061-3): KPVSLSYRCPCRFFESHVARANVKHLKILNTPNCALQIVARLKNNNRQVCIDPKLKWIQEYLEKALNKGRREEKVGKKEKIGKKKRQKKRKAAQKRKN
Description: (§4) ELISA tests were performed as described above. In brief, ELISA plates were coated with 1 μg/mL of FL-vWF (WT or R1341Q), 1 μg/mL of vWF A1 recombinant protein (U-Protein Express) or 1 μg/mL of vWF A1 HBD peptide (sequence […], (SEQ ID NO:50) chemically synthesized by Genscript) at 37° C. overnight. After blocking with 2% BSA solution containing PBS-T, 1 μg/mL of the recombinant human proteins VEGF-A121, VEGF-A165, PlGF-1, PlGF-2, PDGF-BB, FGF-2, CXCL-12α and CXCL-12γ were added. 1 μg/mL of BSA served as non-binding protein control. Bound GF or chemokine was detected with biotinylated antibodies for human VEGF-A, PlGF, PDGF-BB, FGF-2, or CXCL-12 (R & D Systems). The antibodies were detected by streptavidin-HRP (R & D Systems). Color development and the absorbance measurement were done as described above.

VEGF-A165 [5] = target: T1, VEGF-A165; assay: as above; settings: plate coated with vWF protein, A1 domain or HBD peptide, 1 μg/mL GF
Description: as §4

PDGF-BB [6] = target: T2, PDGF-BB; assay: as above; settings: plate coated with vWF protein, A1 domain or HBD peptide, 1 μg/mL GF
Description: as §4

FGF-2 = FGF-2 (Homo sapiens, UniProt P09038); assay: as above; parameters: All growth factors (GFs) and chemokines were purchased in their mature forms; purchased PeproTech; host or cells: Escherichia coli; settings: plate coated with vWF protein, A1 domain or HBD peptide, 1 μg/mL GF
FGF-2, sequence (P09038 143-288): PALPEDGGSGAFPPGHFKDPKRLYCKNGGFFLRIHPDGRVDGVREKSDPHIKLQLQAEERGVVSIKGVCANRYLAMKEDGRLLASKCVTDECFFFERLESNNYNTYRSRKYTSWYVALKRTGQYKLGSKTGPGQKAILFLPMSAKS
Description: as §4

PlGF-2 [7] = target: T3, PlGF-2; assay: as above; parameters: All growth factors (GFs) and chemokines were purchased in their mature forms; purchased PeproTech; host or cells: Escherichia coli; settings: plate coated with vWF protein, A1 domain or HBD peptide, 1 μg/mL GF
Description: as §4

vWF binding to the GFs = vWF binding to the GFs (Homo sapiens, UniProt P04275); assay: Inhibition of vWF-GF binding by heparin (ELISA); settings: excess (10 μM) heparin; VEGF-A165, PlGF-2 or FGF-2
vWF binding to the GFs, sequence (P04275 764-2813 limits assumed): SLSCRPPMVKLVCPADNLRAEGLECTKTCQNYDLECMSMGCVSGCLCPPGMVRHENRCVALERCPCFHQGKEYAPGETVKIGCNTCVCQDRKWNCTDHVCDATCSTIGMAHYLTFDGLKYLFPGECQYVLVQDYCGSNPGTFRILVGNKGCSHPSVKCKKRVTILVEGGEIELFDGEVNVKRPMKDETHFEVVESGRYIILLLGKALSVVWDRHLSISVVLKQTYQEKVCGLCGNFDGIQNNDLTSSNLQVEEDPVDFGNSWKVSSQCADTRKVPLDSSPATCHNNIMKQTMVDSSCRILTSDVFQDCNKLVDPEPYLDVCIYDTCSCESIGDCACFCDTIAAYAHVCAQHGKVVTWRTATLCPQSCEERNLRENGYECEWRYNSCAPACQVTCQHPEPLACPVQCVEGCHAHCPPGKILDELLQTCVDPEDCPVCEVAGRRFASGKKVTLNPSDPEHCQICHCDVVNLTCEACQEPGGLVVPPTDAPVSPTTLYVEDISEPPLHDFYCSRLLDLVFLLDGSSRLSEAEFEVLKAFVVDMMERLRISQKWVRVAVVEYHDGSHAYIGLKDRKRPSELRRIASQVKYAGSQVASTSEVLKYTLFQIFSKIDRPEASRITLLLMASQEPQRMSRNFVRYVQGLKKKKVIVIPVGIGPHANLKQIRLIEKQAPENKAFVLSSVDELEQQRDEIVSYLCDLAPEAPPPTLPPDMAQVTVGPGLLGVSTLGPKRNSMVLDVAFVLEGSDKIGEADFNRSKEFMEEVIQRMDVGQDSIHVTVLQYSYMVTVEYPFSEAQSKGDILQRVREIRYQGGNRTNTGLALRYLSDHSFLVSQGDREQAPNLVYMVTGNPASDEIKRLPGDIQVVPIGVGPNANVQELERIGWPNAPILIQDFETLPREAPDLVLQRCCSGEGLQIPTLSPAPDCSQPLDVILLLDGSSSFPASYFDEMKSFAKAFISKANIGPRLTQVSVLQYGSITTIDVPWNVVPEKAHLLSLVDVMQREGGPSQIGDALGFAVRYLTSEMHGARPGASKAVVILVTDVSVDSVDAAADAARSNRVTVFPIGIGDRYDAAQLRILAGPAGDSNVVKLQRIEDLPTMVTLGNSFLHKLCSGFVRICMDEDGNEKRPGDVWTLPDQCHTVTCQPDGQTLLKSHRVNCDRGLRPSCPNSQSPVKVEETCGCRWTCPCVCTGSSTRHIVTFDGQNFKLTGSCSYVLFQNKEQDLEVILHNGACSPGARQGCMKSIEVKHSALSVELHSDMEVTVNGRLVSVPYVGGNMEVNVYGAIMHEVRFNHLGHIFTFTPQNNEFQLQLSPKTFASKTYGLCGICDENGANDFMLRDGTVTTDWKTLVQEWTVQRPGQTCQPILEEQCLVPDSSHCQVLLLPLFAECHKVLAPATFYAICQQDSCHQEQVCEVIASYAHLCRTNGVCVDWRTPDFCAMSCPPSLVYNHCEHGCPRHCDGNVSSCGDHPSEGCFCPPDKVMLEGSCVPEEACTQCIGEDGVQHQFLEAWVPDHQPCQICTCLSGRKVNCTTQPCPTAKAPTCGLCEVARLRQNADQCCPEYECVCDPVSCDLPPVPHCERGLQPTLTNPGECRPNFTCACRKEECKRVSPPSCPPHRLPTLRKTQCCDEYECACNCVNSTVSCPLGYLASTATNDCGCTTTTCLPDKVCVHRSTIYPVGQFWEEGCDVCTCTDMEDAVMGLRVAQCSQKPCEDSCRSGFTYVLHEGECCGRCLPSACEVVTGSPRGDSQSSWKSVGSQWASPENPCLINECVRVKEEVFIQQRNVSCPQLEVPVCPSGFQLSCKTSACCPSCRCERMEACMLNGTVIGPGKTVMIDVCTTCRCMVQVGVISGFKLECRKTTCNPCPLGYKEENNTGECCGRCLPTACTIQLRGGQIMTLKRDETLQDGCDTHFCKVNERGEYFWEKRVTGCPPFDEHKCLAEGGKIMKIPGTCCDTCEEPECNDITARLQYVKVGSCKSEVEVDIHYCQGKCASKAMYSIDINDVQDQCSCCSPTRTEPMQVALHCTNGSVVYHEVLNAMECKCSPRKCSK
Description: ELISA plates (med-binding) were coated with 10 μg/mL vWF. Then, wells were blocked with 2% BSA-containing PBS-T and further incubated with 1 μg/mL each of VEGF-A, PlGF-2, or FGF-2 for 60 min at room temperature (RT) with 10 μM heparin. Next, the wells were incubated with biotinylated anti-VEGF-A, anti-PlGF, or anti-FGF-2 antibodies (R & D Systems). The antibodies were detected by streptavidin-HRP (R & D Systems). Color development and the absorbance measurement were done as described above.

GF binding to laminin = assay: Inhibition of laminin-GF binding by heparin (ELISA); settings: heparin added in excess (10 μM); VEGF-A165, PlGF-2 or FGF-2
Description: ELISA plates (med-binding) were coated with 10 μg/mL laminin isoforms (−111, −211, −221, −411, −421, −511, and −521) in PBS for 2 hrs at 37° C. Then, wells were blocked with 2% BSA-containing PBS-T and further incubated with 1 μg/mL each of VEGF-A165, PlGF-2, or FGF-2 for 60 min at RT with 10 μM heparin. Next, the wells were incubated with biotinylated anti-VEGF, anti-PlGF, or anti-FGF-2 antibodies (R&D Systems). The antibodies were detected by streptavidin-HRP (R&D Systems).

[8] = system: full-thickness back-skin wounds in db/db diabetic mice; assay: Retention of VEGF-A165 at the wound site; assay type: in vivo; settings: db/db mouse; fibrin matrix with 200 ng VEGF-A165/wound; 3 days after treatment; vs without peptide
Description: Retention assays were performed as previously reported^1. Briefly, C57BLKS/J-m/Lepr db (db/db) mice ages 10 to 11 wks were used. Their backs were shaved and four full-thickness punch-biopsy wounds (6 mm in diameter) were created in each mouse. Directly after, fibrin matrices [80 μL total, fibrinogen (10 mg/mL), 2 U/mL human thrombin, 4 U/mL factor XIII, 5 mM calcium chloride, 2 μM α2PI1-8-α33043-3067, 200 ng of recombinant human VEGF-A165] were polymerized on the wounds. To avoid drying of the matrices, the wounds were covered with non-adhering dressing (Adaptic, Johnson & Johnson), and then with adhesive film dressing (Hydrofilm, Hartmann). After 3 or 6 days, mice were sacrificed. The wounds were punched again, in order to recover the fibrinous matrices. Moreover, the tissue surrounding the wounds (2 mm beyond the wound margin) was removed. The tissue was transferred in 0.9 mL of tissue T-PER Tissue Protein Extraction Reagent (Thermo Scientific) containing 1 mg/mL of collagenase IV (Sigma-Aldrich), and homogenized with a tissue homogenizer. […] Recombinant human VEGF-A165 remaining in the fibrinous matrix and in the tissue surrounding the wound were quantified by ELISA (DuoSet, R&D Systems), using 200 ng of recombinant human VEGF-A165 as 100%.

laminin-521: recombinant human full-length laminin isoform -521 (BioLamina)
Kd (VEGF-A165 [1]): 5.8 nM
Kd (PDGF-BB [2]): 24.2 nM
Kd (PlGF-2 [3]): 12.9 nM

laminin-332: recombinant human full-length laminin isoform -332 (BioLamina)
binding of laminin to CXCL-12a (CXCL-12α): bound weakly
binding of laminin to CXCL-11 (CXCL-11): bound weakly

recombinant A1 domain: recombinant human vWF A1 domain (U-Protein Express)
binding to VEGF-A145 (VEGF-A145): bound
binding to VEGF-A165 (VEGF-A165 [4]): bound
binding to CXCL-12γ (CXCL-12γ): strong binding
binding to VEGF-A165 (VEGF-A165 [5]): strong binding
binding to PDGF-BB (PDGF-BB [6]): strong binding
binding to FGF-2 (FGF-2): strong binding
binding to PlGF-2 (PlGF-2 [7]): strong binding

heparin
inhibition of vWF binding to the GFs (vWF binding to the GFs): inhibited vWF binding to the GFs
inhibition of GF binding to laminin (GF binding to laminin): inhibited GF binding to laminin

NQEQVSPLRLVFALGTDGKKLRIKSKEKCNDGK [α2PI1-8-α33043-3067]
amount of VEGF-A165 remaining in the wounds [8]: significantly enhanced

Source: patent publication US11732029B2, “Methods and compositions for the treatment of wounds” (The University of Chicago, priority 2017, dated 2023)
